Data from US6022855A, “Methods and reagents for inhibiting furin endoprotease” (Oregan Health Sciences University, priority 1995, dated 2000).
Numbering of substitutions follows the chain as printed.

Experiments:
elastase [1] = target: elastase
thrombin [2] = target: thrombin
[3] = target: furin endoprotease endogenous to BSC-40 cells
[4] = system: syncytium formation IP/IR cells / CD4+ HeLa cells; format: cell-based, human; settings: serpin co-expressed with gp160 in IP/IR cells
elastase [5] = format: biochemical; settings: relative concentration of serpin inhibitor 100
[6] = system: furin-mediated processing of pro-β-NGF in BSC-40 cells; format: cell-based, African green monkey
Human furin = format: biochemical; settings: for percent endoprotease activity in presence of each serpin (Furin): relative concentration of serpin inhibitor 100; for inhibition of furin endoprotease activity (FIG. 2, in words): serpin 10 μg/mL, 20 min 37° C. pre-incubation, substrate 50 μM
[7] = system: furin-mediated processing of HIV-1 gp160 in BSC-40 cells; format: cell-based, African green monkey
thrombin [8] = format: biochemical

native α1 -antitrypsin
percent endoprotease activity in presence of each serpin (elastase [1]): 13%

α1 -antitrypsin Pittsburgh
percent endoprotease activity in presence of each serpin (thrombin [2]): 8% | percent endoprotease activity in presence of each serpin (elastase [1]): 98%

α1 -antitrypsin Portland
percent endoprotease activity in presence of each serpin (thrombin [2]): 95% | percent endoprotease activity in presence of each serpin (elastase [1]): 101% | percent of pro-β-NGF processed in VV:mNGF-infected BSC-40 cells with α1 -PDX protein in the medium (densitometry) (% processed at 50 µg/mL) [3]: 10

B1: α1 -NAT: native α1-antitrypsin, naturally-occurring protease inhibitor (-Ala-Ile-Pro-Met- at positions 355-358) (protein)
chain: EDPQGDAAQKTDTSHHDQDHPTFNKITPNLAEFAFSLYRQLAHQSNSTNIFFSPVSIATAFAMLSLGTKADTHDEILEGLNFNLTQIPEAQIHEGFQELLRTLNQPDSQLQLTTGNGLFLSQGLKLVDKFLEDVKKLYHSEAFTVNFGDTEQAKKQINDYVEKGTQGKIVDLVKELDRDTVFALVNYIFFKGKWERPFEVKDTEEEDFHVDQVTTVKVPMMKRLGMFNIQHCKKLSSWVLLMKYLGNATAIFFLPDEGKLQHLENELTHDIITKFLENEDRRSASLHLPKLSITGTYDLKSVLGQLGITKVFSNGADLSGVTEEAPLKLSKAVHKAVLTIDEKGTEAAGAMFLEAIPMSIPPEVKFNKPFVFLMIEQNTKSPLFMGKVVNPTGK
effect on gp41-mediated syncytia formation (FIGS. 6D-6F) [4]: had no effect on syncytia formation | percent endoprotease activity in presence of each serpin (Elastase) (elastase [5]): 13% | forms of β-NGF secreted by co-infected cells (FIG. 3) [6]: produced both the processed and unprocessed forms of β-NGF | percent endoprotease activity in presence of each serpin (Furin) (Human furin): 101% | inhibition of furin endoprotease activity (FIG. 2, in words) (Human furin): unable to inhibit | gp160 processing products in co-infected cells (FIG. 4) [7]: produced both unprocessed gp160 and processed gp120 and gp41

B2: α1 -PIT: naturally-occurring variant α1-antitrypsin Pittsburgh, Met358→Arg358 mutation (Ala355-Ile-Pro-Arg358) (protein)
chain: B1 chain with M358R
effect on gp41-mediated syncytia formation (FIGS. 6D-6F) [4]: had no effect on syncytia formation | percent endoprotease activity in presence of each serpin (Elastase) (elastase [5]): 98% | inhibition of thrombin endoprotease activity (FIG. 2, in words) (thrombin [8]; FIG. 2): specifically inhibited | percent endoprotease activity in presence of each serpin (Thrombin) (thrombin [8]; relative concentration of serpin inhibitor 100): 8% | forms of β-NGF secreted by co-infected cells (FIG. 3) [6]: produced both the processed and unprocessed forms of β-NGF | percent endoprotease activity in presence of each serpin (Furin) (Human furin): 97% | inhibition of furin endoprotease activity (FIG. 2, in words) (Human furin): not furin | gp160 processing products in co-infected cells (FIG. 4) [7]: produced both unprocessed gp160 and processed gp120 and gp41
